According to article PMC10580588:

Target: FLAG-tagged full-length senataxin (SETX) (human) (UniProt Q7Z333)
Experiment: co-IP; SETX immunoprecipitated, the IP'd material treated with or without RNase A; bands measured by densitometry; IgG only IP as negative control

Chain of UniProt Q7Z333 (Q7Z333 whole entry): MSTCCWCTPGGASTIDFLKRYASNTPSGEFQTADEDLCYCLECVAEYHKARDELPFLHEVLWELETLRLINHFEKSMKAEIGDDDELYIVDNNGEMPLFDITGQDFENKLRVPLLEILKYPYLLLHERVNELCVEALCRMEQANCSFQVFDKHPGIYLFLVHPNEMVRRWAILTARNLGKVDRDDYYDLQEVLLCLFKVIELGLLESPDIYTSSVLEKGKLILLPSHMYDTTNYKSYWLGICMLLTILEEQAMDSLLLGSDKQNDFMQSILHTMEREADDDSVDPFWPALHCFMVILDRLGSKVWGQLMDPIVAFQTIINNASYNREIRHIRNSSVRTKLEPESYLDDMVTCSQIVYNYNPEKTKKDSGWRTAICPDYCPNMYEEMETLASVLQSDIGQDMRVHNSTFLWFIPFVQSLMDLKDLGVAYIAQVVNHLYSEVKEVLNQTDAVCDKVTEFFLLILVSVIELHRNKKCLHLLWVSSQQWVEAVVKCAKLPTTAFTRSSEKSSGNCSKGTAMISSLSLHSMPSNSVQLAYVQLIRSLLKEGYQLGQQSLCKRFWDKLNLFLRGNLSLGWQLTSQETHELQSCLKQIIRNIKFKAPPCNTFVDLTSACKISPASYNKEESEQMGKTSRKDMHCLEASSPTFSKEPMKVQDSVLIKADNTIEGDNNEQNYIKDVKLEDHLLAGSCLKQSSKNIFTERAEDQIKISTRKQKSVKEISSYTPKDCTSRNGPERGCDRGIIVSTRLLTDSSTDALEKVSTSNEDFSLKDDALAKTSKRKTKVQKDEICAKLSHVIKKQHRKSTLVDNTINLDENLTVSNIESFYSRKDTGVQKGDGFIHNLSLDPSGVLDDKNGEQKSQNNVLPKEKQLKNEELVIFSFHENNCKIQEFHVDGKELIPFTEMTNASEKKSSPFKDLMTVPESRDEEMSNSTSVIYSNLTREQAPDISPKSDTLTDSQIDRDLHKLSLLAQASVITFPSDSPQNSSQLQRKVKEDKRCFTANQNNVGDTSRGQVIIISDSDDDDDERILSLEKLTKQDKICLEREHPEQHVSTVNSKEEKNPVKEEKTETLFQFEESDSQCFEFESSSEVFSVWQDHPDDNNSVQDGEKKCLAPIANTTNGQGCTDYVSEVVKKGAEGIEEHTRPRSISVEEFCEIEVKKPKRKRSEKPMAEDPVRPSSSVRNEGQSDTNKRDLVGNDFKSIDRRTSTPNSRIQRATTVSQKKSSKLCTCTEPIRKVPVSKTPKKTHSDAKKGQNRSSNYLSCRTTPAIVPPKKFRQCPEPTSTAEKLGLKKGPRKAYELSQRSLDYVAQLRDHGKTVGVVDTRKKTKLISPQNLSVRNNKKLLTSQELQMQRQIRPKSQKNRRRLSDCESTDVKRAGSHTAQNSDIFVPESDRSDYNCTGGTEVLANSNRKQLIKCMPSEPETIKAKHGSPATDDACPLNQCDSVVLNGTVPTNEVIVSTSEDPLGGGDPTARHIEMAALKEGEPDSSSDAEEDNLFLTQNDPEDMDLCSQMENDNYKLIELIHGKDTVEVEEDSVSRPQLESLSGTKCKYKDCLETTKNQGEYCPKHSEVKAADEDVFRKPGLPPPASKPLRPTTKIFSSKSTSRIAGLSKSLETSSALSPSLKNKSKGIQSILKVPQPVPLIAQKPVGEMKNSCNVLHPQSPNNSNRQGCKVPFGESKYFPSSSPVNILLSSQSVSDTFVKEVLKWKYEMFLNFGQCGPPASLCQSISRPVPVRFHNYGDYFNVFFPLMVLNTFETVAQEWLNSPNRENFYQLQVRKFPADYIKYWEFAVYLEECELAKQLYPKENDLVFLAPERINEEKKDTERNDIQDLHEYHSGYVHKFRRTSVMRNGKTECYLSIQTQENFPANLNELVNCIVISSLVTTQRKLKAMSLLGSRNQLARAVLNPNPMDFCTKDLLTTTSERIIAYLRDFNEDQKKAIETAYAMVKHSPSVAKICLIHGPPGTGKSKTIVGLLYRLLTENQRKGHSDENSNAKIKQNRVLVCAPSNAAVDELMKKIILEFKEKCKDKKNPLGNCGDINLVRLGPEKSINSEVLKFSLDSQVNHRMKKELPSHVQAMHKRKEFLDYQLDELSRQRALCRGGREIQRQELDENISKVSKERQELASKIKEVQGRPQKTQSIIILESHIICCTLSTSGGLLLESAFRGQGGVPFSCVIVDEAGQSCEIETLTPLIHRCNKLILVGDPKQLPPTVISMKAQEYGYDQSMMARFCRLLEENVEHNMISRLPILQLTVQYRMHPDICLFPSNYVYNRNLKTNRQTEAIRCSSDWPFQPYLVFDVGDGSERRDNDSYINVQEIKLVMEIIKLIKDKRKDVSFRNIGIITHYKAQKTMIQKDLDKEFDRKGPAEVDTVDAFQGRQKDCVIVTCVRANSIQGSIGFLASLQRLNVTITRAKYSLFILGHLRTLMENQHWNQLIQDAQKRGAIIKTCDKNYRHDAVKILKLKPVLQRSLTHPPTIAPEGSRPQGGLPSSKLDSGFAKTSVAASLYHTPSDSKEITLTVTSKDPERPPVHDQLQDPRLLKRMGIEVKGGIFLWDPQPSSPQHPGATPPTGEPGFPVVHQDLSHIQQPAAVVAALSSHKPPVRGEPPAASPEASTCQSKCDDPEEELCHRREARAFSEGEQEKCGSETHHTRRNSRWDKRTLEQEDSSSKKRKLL

In the case of GFP-GR30 (peptide), the percent reduction of the co-IP band upon RNase A treatment is reported as 32%.
